Source: paper PMC2532717 (Nucleic Acids Research, 2008)

Target: the molecule itself
Experiment: cross-linking

Protein	stoichiometry N	binding result
RecUK56A (enzyme, B. subtilis) MIRYPNGKTFQPKHSVSSQNSQKRAPSYSNRGMTLEDDLNETNKYYLTNQIAVIHAKPTPVQIVNVHYPKRSAAVIKEAYFKQSSTTDYNGIYKGRYIDFEAKETKNKTSFPLQNFHDHQIEHMKQVKAQDGICFVIISAFDQVYFLEADKLFYFWDRKEKNGRKSIRKDELEETAYPISLGYAPRIDYISIIEQLYFSPSSGAKG	2	
RecUR71A (enzyme, B. subtilis) MIRYPNGKTFQPKHSVSSQNSQKRAPSYSNRGMTLEDDLNETNKYYLTNQIAVIHKKPTPVQIVNVHYPKASAAVIKEAYFKQSSTTDYNGIYKGRYIDFEAKETKNKTSFPLQNFHDHQIEHMKQVKAQDGICFVIISAFDQVYFLEADKLFYFWDRKEKNGRKSIRKDELEETAYPISLGYAPRIDYISIIEQLYFSPSSGAKG	2	
RecA (natural protein, B. subtilis, UniProt P16971 1-348, looked up) MSDRQAALDMALKQIEKQFGKGSIMKLGEKTDTRISTVPSGSLALDTALGIGGYPRGRIIEVYGPESSGKTTVALHAIAEVQQQGGQAAFIDAEHALDPVYAQKLGVNIEELLLSQPDTGEQALEIAEALVRSGAVDIVVVDSVAALVPKAEIEGDMGDSHVGLQARLMSQALRKLSGAINKSKTIAIFINQIREKVGVMFGNPETTPGGRALKFYSSVRLEVRRAEQLKQGNDVMGNKTKIKVVKNKVAPPFRTAEVDIMYGEGISKEGEIIDLGTELDIVQKSGSWYSYEEERLGQGRENAKQFLKENKDIMLMIQEQIREHYGLDNNGVVQQQAEETQEELEFEE		binds
